Laboratory results as given in patent publication US20220233710A1 (NANTONG YICHEN BIOPHARMA, published 2022).
Each block holds one binder with its values, some of them ahead of it.

How the values were obtained:
[1] = target: T1, Recombinant human IL-6 (human, UniProt P05231 30-212); assay: ELISA, human IL-6 coated on plate, anti-human Fc-HRP
T1 construct: Bought protein
Procedure: Recombinant human IL-6 (SinoBiological) (100 ng/well) (PBS buffer, pH7.4) was coated in a 96-well plate, and incubated overnight at 4° C. After blocked with PBST containing 2% skimmed milk powder (0.5% Tween-20 in PBS) at room temperature for 1 hour, followed by being washed for 3 times with PBST, the bispecific molecules (0.04 nM-30 nM) in gradient dilutions were added and incubated at 37° C. for 1 h. After being washed for 3 times with PBST, anti-human Fc-HRP (KPL, 1:2500) secondary antibody diluted by 2% milk/PBST was added and incubated at room temperature for 1 h, followed by being washed for 5 times with PBST. TMB (BioLegend) was used for color development, and readings was performed in Thermal VARIOSKAN FLASH plate reader at 650 nm. Data was analyzed with a log[agonist] vs response (3 parameters) model in “non-linear regression” by Graphpad Prizm software.

[2] = target: T2, recombinant mouse IL-1β (mouse, UniProt P10749 118-269); assay: ELISA, IL-1β coated on plate, anti-human Fc-HRP
T2 construct: Bought protein; also called murine IL-1β
Procedure: (§1) Recombinant human IL-1β (Thermo Fisher Scientific), recombinant mouse IL-1β (Sino Bio), recombinant mouse IL-1R (Sino Bio), or recombinant human IL-1R (100 ng/well) (DPBS buffer, pH7.4) was coated in a 96-well plate, and incubated overnight at 4° C. After blocked by PBST (0.5% Tween-20 in PBS) containing 2% skimmed milk powder for 1 hour at room temperature, and being washed with PBST for 3 times, the gradient diluted bispecific molecules (0.006 nM-100 nM) were added and incubated at 37° C. for 1 h. After being washed with PBST for 3 times, anti-human Fc-HRP (KPL; 1:2500) secondary antibody diluted by 2% milk/PBST was added and incubated at room temperature for 1 h, and then washed by PBST for 5 times. QuantaBlu fluorescent peroxide enzyme substrate (Life technologies, Cat. 15169) was used for color development, and reading was performed at 325 nm and 420 nm, or TMB color reagent (Bio Legend) was used for color development, and the reading was performed at 650 nm. Data was analyzed by nonlinear regression using specific binding model in Prizm Graphpad software.

[3] = target: T3, recombinant human IL-1β (human, UniProt P01584 117-269); assay: ELISA, IL-1β coated on plate, anti-human Fc-HRP
T3 construct: Bought protein
Procedure: as §1

T1 sequence (P05231 30-212 limits assumed): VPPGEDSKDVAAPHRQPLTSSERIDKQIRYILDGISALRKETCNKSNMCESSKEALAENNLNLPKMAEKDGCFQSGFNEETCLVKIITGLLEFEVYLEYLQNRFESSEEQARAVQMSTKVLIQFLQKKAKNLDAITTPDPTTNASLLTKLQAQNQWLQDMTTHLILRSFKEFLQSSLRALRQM

B1: aIL-6 antibody (antibody, human IgG1, kappa, N297A, V domains shown)
VH: EVQLVESGGGLVQPGGSLRLSCAASGFTFSPFAMSWVRQAPGKGLEWVAKISPGGSWTYYSDTVTGRFTISRDNAKNSLYLQMNSLRAEDTAVYYCARQLWGYYALDIWGQGTTVTVSS
VL: EIVLTQSPATLSLSPGERATLSCSASISVSYMYWYQQKPGQAPRLLIYDMSNLASGIPARFSGSGSGTDFTLTISSLEPEDFAVYYCMQWSGYPYTFGGGTKVEIKR
binding result [1]: binds

B2: BSI-13 (bispecific antibody, human IgG1, kappa, N297A)
heavy: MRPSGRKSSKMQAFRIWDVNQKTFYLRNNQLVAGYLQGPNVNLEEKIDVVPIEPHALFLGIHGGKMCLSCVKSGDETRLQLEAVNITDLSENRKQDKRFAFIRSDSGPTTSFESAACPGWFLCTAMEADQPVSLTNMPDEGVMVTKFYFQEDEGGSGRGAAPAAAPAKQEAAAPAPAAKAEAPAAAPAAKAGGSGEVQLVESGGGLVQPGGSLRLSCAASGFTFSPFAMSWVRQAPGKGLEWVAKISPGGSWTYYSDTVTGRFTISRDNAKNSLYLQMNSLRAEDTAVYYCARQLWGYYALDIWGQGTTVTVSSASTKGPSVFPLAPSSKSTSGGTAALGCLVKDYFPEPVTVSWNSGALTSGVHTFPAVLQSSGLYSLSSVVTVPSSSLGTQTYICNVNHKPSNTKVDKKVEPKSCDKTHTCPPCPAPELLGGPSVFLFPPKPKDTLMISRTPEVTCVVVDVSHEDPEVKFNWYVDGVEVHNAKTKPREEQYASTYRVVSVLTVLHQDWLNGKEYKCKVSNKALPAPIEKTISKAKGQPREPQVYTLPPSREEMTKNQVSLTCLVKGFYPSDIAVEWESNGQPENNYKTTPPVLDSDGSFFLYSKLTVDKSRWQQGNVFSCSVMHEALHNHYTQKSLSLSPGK
light: EIVLTQSPATLSLSPGERATLSCSASISVSYMYWYQQKPGQAPRLLIYDMSNLASGIPARFSGSGSGTDFTLTISSLEPEDFAVYYCMQWSGYPYTFGGGTKVEIKRTVAAPSVFIFPPSDEQLKSGTASVVCLLNNFYPREAKVQWKVDNALQSGNSQESVTEQDSKDSTYSLSSTLTLSKADYEKHKVYACEVTHQGLSSPVTKSFNRGEC
notes: aIL-6 antibody fused with IL-1RA by a linker peptide
binding result [1]: binds

More lines, now with the values ahead:

binding result [1]: binds
B3: BSI-16 (bispecific antibody, human IgG1, kappa)
heavy: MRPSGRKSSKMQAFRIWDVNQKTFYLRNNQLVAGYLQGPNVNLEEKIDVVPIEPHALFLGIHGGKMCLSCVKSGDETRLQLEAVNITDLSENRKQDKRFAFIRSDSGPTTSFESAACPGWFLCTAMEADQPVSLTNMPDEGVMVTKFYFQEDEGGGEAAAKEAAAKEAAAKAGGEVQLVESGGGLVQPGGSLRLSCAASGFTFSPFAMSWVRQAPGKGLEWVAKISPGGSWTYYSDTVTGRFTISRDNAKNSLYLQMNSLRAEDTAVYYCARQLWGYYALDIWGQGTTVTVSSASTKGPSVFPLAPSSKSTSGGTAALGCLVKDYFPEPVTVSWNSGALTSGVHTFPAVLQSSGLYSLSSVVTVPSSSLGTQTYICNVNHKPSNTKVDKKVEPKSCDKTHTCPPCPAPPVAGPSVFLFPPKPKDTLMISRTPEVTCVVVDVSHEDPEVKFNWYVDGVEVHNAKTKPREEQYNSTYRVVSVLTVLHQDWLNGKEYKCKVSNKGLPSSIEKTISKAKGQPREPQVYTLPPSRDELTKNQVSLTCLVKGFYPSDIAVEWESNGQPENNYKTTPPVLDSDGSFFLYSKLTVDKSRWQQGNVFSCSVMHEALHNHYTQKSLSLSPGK
light: B2 light
notes: as for B2

binding result [2]: binds
binding result [3]: binds
B4: aIL-1β-2 antibody (antibody, V domains shown)
VH: QVQLQQWGAGLLKPSETLSLTCAVYGGSFSDYYWSWIRQPPGKGLEWIGEIDHSGSTNYNPSLKSRVTISVDTSKNQFSLKLSSVTAADTAVYYCARASPSSGWTLDYWGQGTLVTVSS
VL: QSVLTQPPSVSVSPGQTASITCSGDKLGDKFAFWYQQKPGQSPVLVIYLDNKRPSGIPERFSGSNSGNTATLTISGTQALDEADYYCYAWADTYEVFGGGTKVDIKR
